Test results taken from patent EP1988168A1 (Max-Planck-Gesellschaft zur Förderung der Wissenschaften …, dated 2008).

B1: Syn7002-RbcL peptide 1, EIKFEFD (peptide)
peptide: EIKFEFD
notes: also called peptide EIKFEFD
B2: Syn7002-RbcXFLAG (other, Synechococcus sp. PCC7002)
chain: MDYKDDDDKAGMEFKKVAKETAITLQSYLTYQAVRLISQQLSETNPGQAIWLGEFSKRHPIQESDLYLEAMMLENKELVLRILTVRENLAEGVLEFLPEMVLSQIKQSNGNHRRSLLERLTQVDSSSTDQTEPNPGESDTSEDSE
notes: Coexpressed with RbcL in E. coli and pulled down with anti-FLAG M2 beads; also called N-terminally FLAG-tagged wildtype RbcX; FLAG-tagged Syn7002-RbcX
B3: AnaCA-RbcX (other, Anabaena sp. CA, UniProt Q44212 1-135, looked up)
chain: MNLKQIAKDTAKTLQSYLTYQALRTVLAQLGETNPPLALWLHNFSAGKVQDGEKYIEELFLEKPDLALRIMTVREHIAEEIAEFLPEMVVTGIQQANMEKRRQHLERMTQVSLSHPSPESEQQQFSDPDWDNLAS
notes: also called RbcX from Anabaena sp; CA
B4: Syn7002-RbcL peptide 2, KEIKFEFDTVD (peptide)
peptide: KEIKFEFDTVD
B5: AnaCA-RbcXFLAG (other, Anabaena sp. CA)
chain: MDYKDDDDKAGMNLKQIAKDTAKTLQSYLTYQALRTVLAQLGETNPPLALWLHNFSAGKVQDGEKYIEELFLEKPDLALRIMTVREHIAEEIAEFLPEMVVTGIQQANMEKRRQHLERMTQVSLSHPSPESEQQQFSDPDWDNLAS
notes: also called FLAG-tagged AnaCA-RbcX
B6: Syn7002-RbcX (other, Synechococcus sp. PCC7002, UniProt Q44177 1-134, looked up)
chain: MEFKKVAKETAITLQSYLTYQAVRLISQQLSETNPGQAIWLGEFSKRHPIQESDLYLEAMMLENKELVLRILTVRENLAEGVLEFLPEMVLSQIKQSNGNHRRSLLERLTQVDSSSTDQTEPNPGESDTSEDSE
notes: Assembly chaperone; also called RbcX of Synechococcus sp; PCC7002; non-tagged Syn7002-RbcX
B7: Syn7002-RbcL (enzyme, Synechococcus sp. PCC7002, UniProt Q44176 1-470, looked up)
chain: MQTKSAGFNAGVQDYRLTYYTPDYTPKDTDLLACFRMTPQPGVPPEECAAAVAAESSTGTWTTVWTDGLTDLDRYKGRCYNVEPVPGEDNQYFCFVAYPLDLFEEGSVTNVLTSLVGNVFGFKALRALRLEDIRFPVALIKTYQGPPHGITVERDLLNKYGRPLLGCTIKPKLGLSAKNYGRAVYECLRGGLDFTKDDENINSQPFMRWRDRFLFVQEAIEKSQAETNEVKGHYLNVTAGTCEEMLKRAEFAKEIGTPIIMHDFLTGGFTANTTLAKWCRDNGVLLHIHRAMHAVIDRQKNHGIHFRVLAKCLRLSGGDHLHSGTVVGKLEGDRAATLGFVDLMREDYVEEDRSRGVFFTQDYASLPGTMPVASGGIHVWHMPALVEIFGDDSCLQFGGGTLGHPWGNAPGATANRVALEACVQARNEGRSLAREGNDVLREAGKWSPELAAALDLWKEIKFEFDTVDTL
notes: Stood in the assays as monomers, dimers, assembly intermediates or RbcL8 core complex, depending on the experiment; also called wildtype RbcL; RbcL8

Columns and labels:
Syn7002-RbcX = target: B6; assay: isothermal titration calorimetry, peptide titrated into RbcX dimer at 22°C
AnaCA-RbcX = target: B3; assay: as above
Syn7002-RbcL [1] = target: B7; assay: co-immunoprecipitation with anti-FLAG antibody from E. coli extract
Syn7002-RbcL(1-459) = Syn7002-RbcL(1-459) (Synechococcus sp. PCC7002, UniProt Q44176 1-459); assay: coexpression in E. coli, Native-PAGE and immunoblot
[2] = target: T1, Syn7002-RbcL(F462A, F464A) (Synechococcus sp. PCC7002, UniProt Q44176 1-470); assay: as above
T1 construct: also called RbcL(F462A/F464A) double mutant

[3] = target: B4; assay: comparison of the ITC affinities for the C-terminal RbcL peptide
[4] = target: T1, Syn7002-RbcL(F462A, F464A); assay: pulse-chase in vitro translation, Bis-Tris Native-PAGE, autoradiography
Syn7002-RbcL [5] = target: B7; assay: displacement of RbcL from anti-FLAG beads carrying the Syn7002-RbcL/Syn7002-RbcXFLAG complex, 15 min at room temperature, immunoblot; competitor Syn7002-RbcXFLAG
GroEL = target: T2, GroEL (E. coli, UniProt P0A6F5 2-548); assay: in vitro translation, Native-PAGE, autoradiography
T2 construct: also called E. coli GroEL; chaperonin
T2 sequence (P0A6F5 2-548 limits assumed): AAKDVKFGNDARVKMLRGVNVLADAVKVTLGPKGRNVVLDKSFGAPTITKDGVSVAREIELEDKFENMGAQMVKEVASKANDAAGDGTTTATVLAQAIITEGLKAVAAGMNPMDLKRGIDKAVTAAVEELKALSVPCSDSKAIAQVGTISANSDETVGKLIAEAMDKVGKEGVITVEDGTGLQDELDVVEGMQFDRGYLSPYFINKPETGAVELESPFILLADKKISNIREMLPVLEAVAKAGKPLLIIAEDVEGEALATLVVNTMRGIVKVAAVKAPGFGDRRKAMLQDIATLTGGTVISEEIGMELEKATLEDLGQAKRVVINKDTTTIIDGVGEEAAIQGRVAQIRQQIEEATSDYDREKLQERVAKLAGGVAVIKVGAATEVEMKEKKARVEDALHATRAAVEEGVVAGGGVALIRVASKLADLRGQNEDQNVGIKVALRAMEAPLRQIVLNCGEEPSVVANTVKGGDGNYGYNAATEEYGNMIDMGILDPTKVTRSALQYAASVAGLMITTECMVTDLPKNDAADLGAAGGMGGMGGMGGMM

## B1
Syn7002-RbcX
  Kd: ~230 µM
AnaCA-RbcX
  Kd: ~60 µM

## B2
Syn7002-RbcL [1]
  binding result: binds

## B3
Syn7002-RbcL(1-459)
  binding result: no binding
[2]
  binding result: no binding
[3]
  fold higher affinity (against Syn7002-RbcX): 30 fold

## B4
Syn7002-RbcX
  Kd: ~160 µM
AnaCA-RbcX
  Kd: ~5 µM

## B5
[4]
  binding result: no binding (tested: 40 µM RbcX)

## B6
Syn7002-RbcL [5]
  IC50: ~1 µM

## B7
GroEL
  binding result: binds
